According to patent US20110014669A1, “Production of 1,4 Butanediol in a Microorganism” (Microbia, Inc., priority 2009, published 2011):

How the values were obtained:
[1] = tested on: 5-hydroxy-2-oxopentanoate; assay: Enzyme assay, decarboxylase (step A5), aldehyde dehydrogenase linked reaction; type: biochemical; set-up: key: +: measureable activity detected in the assay; −: no measurable activity detected in the assay; settings: BDO biosynthetic pathway step A5
Procedure, shortened: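 Crude lysates of E. coli or C. glutamicum expressing the candidate decarboxylase (0.25 mM IPTG induction) were assayed against vector-only control lysates, using natural substrate and pathway metabolite. Decarboxylation was coupled to aldehyde dehydrogenase converting the aldehyde product to acid with NAD+ reduction, followed as absorbance increase at 340 nm.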

[2] = tested on: 3-methyl-2-oxopentanoate (3-MOP); assay: Kinetics of purified His-tagged KdcAL1 on 3-MOP (aldehyde dehydrogenase linked reaction); type: biochemical; settings: substrate 3-MOP; purified His-tagged enzyme
Method: (§1) Aldehyde Dehydrogenase linked reaction: In another example of a coupled assay, the decarboxylation of a substrate is linked to the activity of an aldehyde dehydrogenase (Sigma catalog number A6338) reaction that converts the aldehyde product to a carboxylic acid with the concomitant reduction of NAD+. The overall activity of the coupled reactions is assessed spectrophotometrically by measuring the increase in absorbance at 340 nm which corresponds to the NAD+ reduction. One enzyme unit is defined as the amount of enzyme that catalyzes the decarboxylation of 1 μmol of substrate per minute.
(§2) Standard molecular biology techniques were used to create an E. coli expression construct encoding KdcAL1 having three histidine (His) residues attached to its C-terminus. This His-tagged enzyme was over-expressed in E. coli, purified and assayed to assess its activity towards a natural substrate, 3-methyl-2-oxopentanoate (3-MOP) and its BDO pathway substrate, 5-hydroxy-2-oxopentanoate (5-HOP). The purified enzyme was assayed as described in example 3 above (step A5, Aldehyde dehydrogenase linked reaction). […] This Vmax is about 10 times lower than the rate of 3-MOP activity.

[3] = tested on: 5-hydroxy-2-oxopentanoate (5-HOP); assay: Kinetics of purified His-tagged KdcAL1 on 5-HOP (aldehyde dehydrogenase linked reaction); type: biochemical
Method: as §1, §2

[4] = tested on: 5-hydroxy-2-oxopentanoate; assay: In vitro substrate conversion assay, step A5; type: biochemical; set-up: key: +: measureable activity detected in the assay; −: no measurable activity detected in the assay; settings: BDO biosynthetic pathway step A5
Method: (§3) In Vitro Substrate Conversion. Most of the enzyme assays described above are based on recording changes in absorbance at a given wavelength. In addition to such spectrophotometric readouts, these assays can also be analyzed by more direct methods using an endpoint assay where the reaction is terminated after a given period of time and the mixture is analyzed via HPLC or LC-MS methods.
(§4) The aldehyde dehydrogenase linked reaction was used for step A5.

[5] = tested on: 5-hydroxy-2-oxopentanoate; assay: Bioconversion (feeding) assay, step A5; type: cell-based; set-up: key: +: measureable activity detected in the assay; −: no measurable activity detected in the assay; settings: BDO biosynthetic pathway step A5
Method: (§5) Bioconversion assays. The activity of a candidate enzyme towards a given substrate can also be evaluated in vivo using a simple feeding assay. A strain expressing the candidate enzyme is grown in the presence of the substrate for which activity is desired. Samples of the culture are removed periodically and the cells are removed via centrifugation. The culture supernatant is then analyzed (e.g., by LC-MS) to determine how much of the substrate has been removed and how much of a given product is present.
as §4

4-hydroxybutanal [6] = assay: Bioconversion (feeding) assay, step A6; type: cell-based; set-up: key: +: measureable activity detected in the assay; −: no measurable activity detected in the assay; settings: BDO biosynthetic pathway step A6
Method: as §5, §4

4-hydroxybutanal [7] = assay: In vitro substrate conversion assay, step A6; type: biochemical; set-up: key: +: measureable activity detected in the assay; −: no measurable activity detected in the assay; settings: BDO biosynthetic pathway step A6
Method: as §3, §4

4-hydroxybutanal [8] = assay: Enzyme assay, oxidoreductase (step A6), cell lysates; type: biochemical; set-up: key: +: measureable activity detected in the assay; −: no measurable activity detected in the assay; settings: BDO biosynthetic pathway step A6
Method: (§6) Enzyme expression and crude lysate preparation. The enzymatic activity of each candidate enzyme is evaluated, first in E. coli and subsequently in C. glutamicum. It will be apparent to one of skill in the art that the expression and lysate preparations may need to be modified depending on the host cell and recombinant gene of interest.
E. coli: E. coli strains transformed with expression clones, for example, pUC18 or MB4124 based clones having a medium strong constitutive promoter regulating the recombinant gene of interest, are grown aerobically in LB medium (Difco) containing the appropriate antibiotic(s). At an OD600 of 0.5, IPTG is added to a final concentration of 0.25 mM. The cultures are grown to a final OD600 of 1.5 at which time the cells are collected and harvested by centrifugation. Cell pellets are resuspended in BugBuster (Novagen) reagent containing benzonase and lysozyme. Alternatively, E. coli strains transformed with expression clones, are grown overnight aerobically at 37° C. in BHI containing the appropriate antibiotic(s). 300 μL of fresh overnight culture is used to inoculate 2.7 mL BHI containing 0.25 mM IPTG and the appropriate antibiotic. The cultures are grown aerobically for 4-5 hours at 37° C. at which time the cells are collected and harvested by centrifugation. Cell pellets are frozen at −80° C. for at least 15 minutes, then thawed and resuspended in BugBuster (Novagen) reagent. Lysis and lysate collection are performed according to the manufacturer's instructions and, for example, may involve use of a sonicator and/or French press. Cleared lysates are stored on ice until enzyme assays are performed. […]
(§7) Protein Assays. Protein concentrations in lysates are determined according to the methods of Bradford et al. (Anal. Biochem. 72:248-254 [1976]) or by the method of Smith et al. (Anal. Biochem. 150(1):76-85 [1985]) and lysates are assayed according to the methods below. […]

5-hydroxy-L-norvaline [9] = assay: Enzyme assay, aminotransferase (step A4), cell lysates; type: biochemical; set-up: key: +: measureable activity detected in the assay; −: no measurable activity detected in the assay; settings: BDO biosynthetic pathway step A4
Method: as §6
E. coli: E. coli strains transformed with expression clones, for example, pUC18 or MB4124 based clones having a medium strong constitutive promoter regulating the recombinant gene of interest, are grown aerobically in LB medium (Difco) containing the appropriate antibiotic(s). At an OD600 of 0.5, IPTG is added to a final concentration of 0.25 mM. The cultures are grown to a final OD600 of 1.5 at which time the cells are collected and harvested by centrifugation. Cell pellets are resuspended in BugBuster (Novagen) reagent containing benzonase and lysozyme. Alternatively, E. coli strains transformed with expression clones, are grown overnight aerobically at 37° C. in BHI containing the appropriate antibiotic(s). 300 μL of fresh overnight culture is used to inoculate 2.7 mL BHI containing 0.25 mM IPTG and the appropriate antibiotic. The cultures are grown aerobically for 4-5 hours at 37° C. at which time the cells are collected and harvested by centrifugation. Cell pellets are frozen at −80° C. for at least 15 minutes, then thawed and resuspended in BugBuster (Novagen) reagent. Lysis and lysate collection are performed according to the manufacturer's instructions and, for example, may involve use of a sonicator and/or French press. Cleared lysates are stored on ice until enzyme assays are performed.
C. glutamicum: C. glutamicum strains transformed with MB4124 expression clones containing the recombinant gene of interest are grown aerobically in BHI broth supplemented with the proper antibiotic(s). At an OD600 of 0.5, IPTG is added to a final concentration of 0.25 mM. The cultures are grown to a final OD600 of 1.5 at which time the cells are collected and harvested by centrifugation. The pellet is washed once in one volume of water and resuspended in lysis buffer (1.0 ml 1.0 M HEPES buffer, pH 7.5, 0.5 ml 1M KOH, 10 μl 0.5M EDTA, protease inhibitor cocktail, water to 5 ml; the final pH will vary depending on the individual enzyme being tested) and one volume of 0.1 mm acid washed glass beads. The mixture is repeatedly alternately vortexed and held on ice for 15 seconds, eight times. After centrifugation for 5 min at 4,000 rpm, the supernatant lysate is removed and respun for 20 min at 10,000 rpm. Alternatively, C. glutamicum strains transformed with MB4124 expression clones containing the recombinant gene of interest are grown aerobically overnight in BHI broth supplemented with the proper antibiotic(s). Five mL of fresh overnight culture is used to inoculate 200 mL BHI containing 0.25 mM IPTG and the appropriate antibiotic. The cultures are grown aerobically at 30° C. for 5-7 hours at which time the cells are collected and harvested by centrifugation at 4° C. The pellet is resuspended in 15 mL ice cold 39 mM KH2PO4, 61 mM K2HPO4, 0.5 M KCl and lysed using a BioSpec BeadBeater and following the manufacturer's instructions. […]
as §7

5-hydroxy-L-norvaline [10] = assay: Bioconversion (feeding) assay, step A4; type: cell-based; set-up: key: +: measureable activity detected in the assay; −: no measurable activity detected in the assay; settings: BDO biosynthetic pathway step A4
Method: as §5, §4

5-hydroxy-L-norvaline [11] = assay: In vitro substrate conversion assay, step A4; type: biochemical; set-up: key: +: measureable activity detected in the assay; −: no measurable activity detected in the assay; settings: BDO biosynthetic pathway step A4
Method: as §3, §4

B1: KdcALl: Branched-chain alpha-keto acid decarboxylase from Lactococcus lactis, step A5 enzyme candidate, SEQ ID NO. 36; His-tagged when purified (protein, listed as Lactococcus lactis)
chain: MYTVGDYLLDRLHELGIEEIFGVPGDYNLQFLDQIISREDMKWIGNANELNASYMADGYARTKKAAAFLTTFGVGELSAINGLAGSYAENLPVVEIVGSPTSKVQNDGKFVHHTLADGDFKHFMKMHEPVTAARTLLTAENATYEIDRVLSQLLKERKPVYINLPVDVAAAKAEKPALSLEKESSTTNTTEQVILSKIEESLKNAQKPVVIAGHEVISFGLEKTVTQFVSETKLPITTLNFGKSAVDESLPSFLGIYNGKLSEISLKNFVESADFILMLGVKLTDSSTGAFTHHLDENKMISLNIDEGIIFNKVVEDFDFRAVVSSLSELKGIEYEGQYIDKQYEEFIPSSAPLSQDRLWQAVESLTQSNETIVAEQGTSFFGASTIFLKSNSRFIGQPLWGSIGYTFPAALGSQIADKESRHLLFIGDGSLQLTVQELGLSIREKLNPICFIINNDGYTVEREIHGPTQSYNDIPMWNYSKLPETFGATEDRVVSKIVRTENEFVSVMKEAQADVNRMYWIELVLEKEDAPKLLKKMGKLFAEQNK
modifications: His-tag when purified
- Enzyme Assay [1]: +
- Km [2]: 1.3 mM
- Vmax for 5-HOP lower than the rate of 3-MOP activity ([3]; 5-HOP versus 3-MOP): about 10 times
- Km ([3]; substrate 5-HOP, purified His-tagged enzyme): 49 mM
- Vmax ([3]; substrate 5-HOP, purified His-tagged enzyme, FIG. 24): approximately 0.15 U/mg
- In Vitro Substrate Conversion Assay [4]: +
- Bioconversion Assay [5]: +

B2: ADH6Sc: Alcohol dehydrogenase from Saccharomyces cerevisiae, step A6 enzyme candidate, SEQ ID NO. 47 (protein, listed as Saccharomyces cerevisiae)
chain: MSYPEKFEGIAIQSHEDWKNPKKTKYDPKPFYDHDIDIKIEACGVCGSDIHCAAGHWGNMKMPLVVGHEIVGKVVKLGPKSNSGLKVGQRVGVGAQVFSCLECDRCKNDNEPYCTKFVTTYSQPYEDGYVSQGGYANYVRVHEHFVVPIPENIPSHLAAPLLCGGLTVYSPLVRNGCGPGKKVGIVGLGGIGSMGTLISKAMGAETYVISRSSRKREDAMKMGADHYIATLEEGDWGEKYFDTFDLIVVCASSLTDIDFNIMPKAMKVGGRIVSISIPEQHEMLSLKPYGLKAVSISYSALGSIKELNQLLKLVSEKDIKIWVETLPVGEAGVHEAFERMEKGDVRYRFTLVGYDKEFSD
- Bioconversion Assay (4-hydroxybutanal [6]): +
- In Vitro Substrate Conversion Assay (4-hydroxybutanal [7]): +
- Enzyme Assay (4-hydroxybutanal [8]): +

B3: BcaTPf: Branched-chain-amino-acid transaminase from Pseudomonas fluorescens, step A4 enzyme candidate, SEQ ID NO. 58 (protein, listed as Pseudomonas fluorescens)
chain: MGNESINWDKLGFDYIKTDKRFLQVWKNGEWQEGTLTDDNVLHISEGSTALHYGQQCFEGLKAYRCKDGSINLFRPDQNAARMQRSCARLLMPHVPTDVFIDACKQVVKANEHFIPPYGSGGALYLRPFVIGTGDNIGVRTAPEFIFSVFCIPVGAYFKGGLVPHNFQISTFDRAAPQGTGAAKVGGNYAASLMPGSEAKKAGFADAIYLDPMTHSKIEEVGSANFFGITHDNQFITPKSPSVLPGITRLSLIELAKTRLGLDVVEGEVFIDKLDQFKEAGACGTAAVISPIGGIQYNGKLHVFHSETEVGPITQKLYKELTGVQTGDVEAPQGWIVKV
- Enzyme Assay (5-hydroxy-L-norvaline [9]): +
- Bioconversion Assay (5-hydroxy-L-norvaline [10]): +
- In Vitro Substrate Conversion Assay (5-hydroxy-L-norvaline [11]): +
